The data set can be described thus: soluble on expression in E. coli; label from the status in PepcDB or PDB records.
On to “MKKYDVIVVGAGISGLLAALTLSKHGKKVLVLEKGQHLGGNCNSYIVDGYQVDTGAHAITHLIEGPLPRLMDNYFDFLPVFEDYGYYYVRTENALIKVPSNLKDFVTFDVLPRKDRLILSQTLTKALTLSSFGIDLSDQSVYDFLPKNLCKDTYDFVNTISAFLSGKSMKETSAQRILSGSSFVRDSITQEQFDAMIGKFEPKKRQSTESILSSILPYHLHASLQARVDKVAQPFTSLERLATNKVNYSQGYPRKGLKALLNAILYSFPDTVEIKSECEVTGILVESEKVYGVEADEIYLADLIIYTGFATDLPELIKDLPQAYIEELKGIVHTKSLTIWLGLKEELPEFKYTGSEIWFKDFAYWAMPISNYDPSLAPKDKQLVGFSFVIDSEQTEEHELKKAYDTIFRALPNIEKYIDMQHEQIMIPEKAAVTINGKFSDIRTPVKNLYIAGTDTDRRSMGITRAAYSIIELLKILNEDGNLHLEHHHHHH”, for which the “soluble on expression in E. coli” value is “not soluble”. The value for “MKKYTCTVCGYIYNPEDGDPDNGVNPGTDFKDIPDDWVCPLCGGGKDQFEEVEE” was “soluble”; that for “MKLEIFSWWAGDEGPALEALIRLYKQKYPGVEVINATVTGGAGVNARAVLKTRMLGGDPPDTFQVHAGMELIGTWVVANRMEDLSALFRQEGWLQAFPKGLIDLISYKGGIWSVPVNIHRSNVMWYLPAKLKGWGVNPPRTWDKFLATCQTLKQKGLEAPLALGENWTQQHLWESVALAVLGPDDWNNLWNGKLKFTDPKAVRAWEVFGRVLDCANKDAAGLSWQQAVDRVVQGKAAFNIMGDWAAGYMTTTLKLKPGTDFAWAPSPGTQGVFMMLSDSFGLPKGAKNRQNAINWLRLVGSKEGQDTSNPLKGSIAARLDSDPSKYNAYGQSAMRDWRSNRIVGSLVHGAVAPESFMSQFGTVMEIFLQTRNPQAAANAAQAIADQVGLGRLGQHHHHHH” was “soluble”; that for “MKLEYLIDQAAGQPKKTVAVAVAEDHEVIEAVAKAIKLQLAQFRLYGNQEKIMGMLQEHGLQTSEHVEVIAAMSSAEAAELSVKAVRNGEADVLMKGNIPTANILKAVLNKEWGLRKGSVLSHVAAFEVPNYDRLIFVTDAAMNIAPDVTQKAAIIQNTVEVARAIGIDLPKVAPIAAVEVVNPAMQATIDAAMLTQMNRRGQIKDCIVDGPLALDNAVSQIAAEHKGIVSDVAGKADILLVPTIEAGNVLYKSLVYFADAKVGAMIAGAKAPIVLTSRADSAETKVYSLALAVATASK” was “soluble”.

In the case of “MKLKITLYSVCLLMLLAACQQDGPTPEPSVGSRTVLVYMIAQNSLAPLASADIEEMKEGMRQVDATSGNLLVYIDDYSAPRLIRLGKDKKGKVVEETIENYPEQNSADANVMKKVISTAFNQYKAEKYGMVFWSHGEGWIPSPAKTRWFGQDGNNYMDIADLHAALQVAPDLDFLFFDACFMEAVEVAYALRDCGSYLISSPTEIPGPGAPYQTVVPAMFSAENAALKIASCYYDYYQSRYNDGIGMSNEDWTGGVSVGVAKMSELENLAVATSKVLPRYITGKQNFDLSGVMCYDRRTDKQYYYDLDRFIYQITAGNGDYDSWREAFDKVMVYWKSTPRNYSAYAGMFTMNQDAKGLSTYIPRMSAPSLNTSYQQTEWYKVSGWADTGWYKNLEHHHHHH”, the “soluble on expression in E. coli” value is reported as “not soluble”. As for “MKLLSTYRLQPMKFSEIRNRLDYFVELGVTHLYLSPVLKARPGSTHGYDVVDYNTINDELGGEEEYIRLIDEAKSKGLGIIQDIVPNHMAVHHTNWRLMDVLKKGRHSRYYNYFDFYEEEEKIRIPILGDRNFKITYVNDEPYLDYYGNLFPINDEGRNYLNDIEKLLKVQYYELVDWRDYPSYRRFFAVNELIAVRQELEWVFEDSHSKILSFEVDGYRIDHIDGLFKPEEYLRRLKNKIGNKHIFVEKILSIGEKLRWDFIDGTTGYDFLNYSNLLFTDNEDKMTEIYKNILDIDLDELVKETKKKIIDTLFKHDIERISMMLGVNYEEIKEFLSCLKVYRTYITENDFRDEEIIRNCSQKVYESMKKNVTAFMKLQQYMPAVFAKAYEDTVLFIYNRLISLNEVGSDLHYYSISCDKFHEFNLKRVGTLSFNATSTHDTKFSEDVRMRISAISEIPDEWAKKVNEWHNILNPNIDKNDEYRLYQTIVGSFDGFNNEYKERLKAHMIKALREAKVHTDWVNVNTEYEKKMTYLIDKMFNNEKFMESFLEFESKIDKMGKVKSLSLVALKITSPGVADFYQGLENFRYLLTDPDNRRPVVFSELPKRYEEGLFNNGRIKAYVTKVLLNLRKSMKDFFINSEYKPLKLQKGLCGFMRGDKVLVIVKTLNRDYDIEIDGEYTDVITDETVRGRVKVDKLPLILVK”, the “soluble on expression in E. coli” value was “soluble”. Next, “MKLPPSLICPPLLALYRVWCRTLNFEEEGRAAVDVLWQERKPMVFALWHDELFPLMHVRRELEIVTVVSQSRDGEYLARVLQGLGLHTARGSSSRGGVKALLQAARMMQKQNLCGCVTVDGPRGPRHRVKEGAIFLAHRAKAPIVPIRLFMSRTKVFAKAWDKFQLPLPGSDVRVVFGAPYHTAENALESPRLEDERQRLEAKLEALALEHHHHHH”: “soluble”; “MKLTTLGSWGAYPYQDAGTTSYLVTGHDGFQLLMDAGSRALNELEKEISPLDLDAVIISHYHPDHVADLGVLRHYFQLYPKHLWQPKVLPIYGHDEDRNEFAKLSIPDVSEGRAYDVTGVEQIGSFDITFLKTVHPVVCYAFRIVERATGQVLVFTGDSGYFEGLADFAKEADLFLADVYLYEGNENHMAHLTSKEAGLMASQAGVKKLVLTHMPPVPPDGINSKNHLEVLRQETQAYAGNIPVDLALPHKSWNLGSLS”: “not soluble”.

Regarding “MKLVCISDTHSLHRRIPEIPDGDVLIHAGDSLGQGSLENIEDLNDWLGTLPHRHKIVIAGNHDWAFQEMPGEARTALSNAVYLEDSGVEIEGNRFWGSPWTPTFMDWAFMLERGEPLYQKWQLVPDNTDVLITHGPPKGIGDEANLGFKCQNVGCVDLLARIHQLSLKAHIFGHIHEGYGEYLRGKTRLINASTCTARYEPRNAPIVVDVLEHHHHHH”, the “soluble on expression in E. coli” value is given as “not soluble”. Turning to “MKLVGSYTSPFVRKLSILLLEKGITFEFINELPYNADNGVAQFNPLGKVPVLVTEEGECWFDSPIIAEYIELMNVAPAMLPRDPLESLRVRKIEALADGIMDAGLVSVREQARPAAQQSEDELLRQREKINRSLDVLEGYLVDGTLKTDTVNLATIAIACAVGYLNFRRVAPGWCVDRPHLVKLVENLFSRESFARTEPPKA”, the “soluble on expression in E. coli” value is reported as “soluble”. Next, “MKLYLIGLGPGDPELLTLKALRLIQRLPVLFYPKEEGREPVALGIARPFLPEGKPLLPLPLFTGGDPKEAERARREAARRVREALSRYGEGGYLVLGDSLLYASPLNLLPHLEGVAVEAVPGISAHQLAAASLLKPIALGEEGFAAVTGLGPVDPEGLDRFQSVFVYKAKDLEALERAFPDREGWAFLRLGMPGERVLPLGAAKGVARDYWTLVGLWRKGGEG”: “soluble”.

For “MKLYVLIIAIILSIGTARTQNIDSLLMQREDTTQFIRSDSLVLQFLEYSNIPITDNNKVKLIKSGREKFEDLFEAIRGAKHHIHLEYFNFRNDSIANALFDLLGEKVKEGVKVRAMFDAFGNWSNNKPLKKRHLKAIREKGIEIVKFDPFKFPYINHAAHRDHRKIAVIDGKIGYTGGMNIADYYINGLPKIGTWRDMHIRIEGDAVNILQEIFLDIWNKTTKQNIVGEEYFPNHPERADSCNTVISIVDRTPKRNSRMLSHTYAMSIYAAQHDVRIVNPYFVPTSSIRKALKRALNRGTKVEIMISSKSDIPFTPDASLYAVQKLMKKGAMIYLYNGGFHHSKIMMVDDLFCTVGTANLNSRSLRYDYETNAFIFDKDITQQLNDVFEADMLHCTRLTPEMWKQKSAWKKFKCWFANLFTPFL”, the “soluble on expression in E. coli” value is recorded as “not soluble”.

For “MKMDTGALTFQQKIYWLVKQIPLGRVATYGQIAALCGWPRHGRYVGYALYRVAPNSDIPWHRVVNAQGKISYAPQRRGTDELQRWRLAAEGIIFTAGDRINLRRYQWQPPATVYQQLIWPEGAATDSAKALEHHHHHH”, the “soluble on expression in E. coli” value is listed as “soluble”. In the case of “MKMKLAVLPGDGIGPEVMDAAIRVLKTVLDNDGHEAVFENALIGGAAIDEAGTPLPEETLDICRRSDAILLGAVGGPKWDHNPASLRPEKGLLGLRKEMGLFANLRPVKAYATLLNASPLKRERVENVDLVIVRELTGGLYFGRPSERRGPGENEVVDTLAYTREEIERIIEKAFQLAQIRRKKLASVDKANVLESSRMWREIAEETAKKYPDVELSHMLVDSTSMQLIANPGQFDVIVTENMFGDILSDEASVITGSLGMLPSASLRSDRFGMYEPVHGSAPDIAGQGKANPLGTVLSAALMLRYSFGLEKEAAAIEKAVDDVLQDGYCTGDLQVANGKVVSTIELTDRLIEKLNNSAAGPRIFQ”, the “soluble on expression in E. coli” value is “soluble”. As to “MKMQTYYYVLASRRFLLQEEPIEEVLKERTRHYHEQEKEIDFWLVPQPAFLEAPEFADIKAKCPQPAAAIISTNSQFITWLKLRLEYVVTGEFSAPSETIPNPLASLATASLEHHHHHH”, the “soluble on expression in E. coli” value was “soluble”. With “MKNRYAKVSNMAKNASSPSRRFMKLAGMTASIATKTVSNSIRNLTADDEQKLASKTKLFQDIGIQIADTLGEMKGAVMKVGQIASQYKDIFPPEVAKAIAKLQRQAPAVPFSAIQQQVEKELGKPLLQAFQSFDQQPFAAASIGQVHRAVLPDGQEVVVKVQYPGVDEACESDLKQVRLALRLMGVIKIDKKLQDQLFTEIQDSLSDELNYEIEAQNLEVFKTFHQQLDNKIIIPTVYKNYSSRRILTLSLERGDSIETASTWPLETRNQIGRRLIRALGQEIFYLKRFHCDPHPGNFAFREDGTVIIYDFGGVKTLSSDIVSHFKHLVQAARQQDITAIENHLDALHSLSDKGLFPEELYLQWLEVLLRPLTTHYDFAENSAHHDGVTLVKKSLKYWDVFKPSPDTLMVNRTISGHYWNLIHLKVHDDLSDLFEELVPTTIN”, the “soluble on expression in E. coli” value was “not soluble”. “MKNYKKYYIIPAPPEEVYLALTVPTTLLLWTGEEAVMSTEPESEFSLWGGSIEGRNIEFIEGKKIVQQWYFGDQEEPSIVTIILHPDKQDSTSAELRHTNIPDEAYEDMVEGWNGAYFGALQEFYEDEELEHHHHHH”: the “soluble on expression in E. coli” value is “soluble”. In the case of “MKPARLSQTVVAPGCWGELPWGNYYREALEQQLNPWFAKMYGFHLLKIGNLSAEINSEACAVSHQVNVSSQGSPMQVLADPLHLPFADKSVDVCLLAHTLPWCTDPHRLLREADRVLIDDGWLVISGFNPLSLMGLRKLVPVLRKTPPYNSRMFTLMRQLDWLSLLNFEVLHYSRFHVLPWKKQGGRLLNTHIPALGCLQLIVARKRTIPLTLNPLRHNKSKTPIRQTVGATRQYRKPDG”, the “soluble on expression in E. coli” value is on record as “not soluble”.

“MKPKEDREWEKFKTKHITSQSVADFNCNRTMNDPAYTPDGQCKPINTFIHSTTGPVKEICRRATGRVNKSSTQQFTLTTCKNPIRCKYSQSNTTNFICITCRDNYPVHFVKTGKC”: the “soluble on expression in E. coli” value is given as “soluble”. Regarding “MKPLPDYNHSVVEQLNALTAAGTLQADAAQLGVAAHLDRILADLKARKPARKKSALGWMFARKAGPAAFVKGLYVHGSVGRGKTMLMDMFYEMAPVSSKRRCHFHEFMADVHNRVHTHRQKLKNGETKQADPIPPVAAQLLAEAELLCFDEFTVTDIADAMILARLFSELFANGCTLVTTSNVVPDNLYKDGLNRGLFLPFVDLLKKYVEVVTLDSPTDYRMEKLESLPVYITPLDGSADQAMDMAWRHMTAGHLVAPTEIPMKGRSILVPRRQRPGCPFFLFRPLRKAARSFRLSRHRQSFRYGLHRSHSASQCRQALEHHHHHH”, the “soluble on expression in E. coli” value is given as “soluble”.
